The target in data set [1] is T1, GST-IN-CTD (HIV-1 integrase C-terminal domain) (HIV-1, UniProt P04585 1348-1435). Nature of the data set: competition (AlphaScreen); low salt; competes with His6-SUMO-INI1(183-304) (0.094 uM) for GST-CTD (0.186 uM); Alpha proximity assay, low salt (100 mM NaCl; 500 mM in salt test); buffer, pH and temperature not in the material. The following applies: protein: recombinant; tags: GST; hairpin.

For data set [2], the target named is T1, GST-IN-CTD (HIV-1 integrase C-terminal …). Nature of the data set: AlphaScreen; 100 mM NaCl; displaced by INI1(183-304), IC50 of INI1 about 5 nM (Fig. 4e); Alpha proximity assay, low salt (100 mM NaCl; 500 mM in salt test); buffer, pH and temperature not in the material. The following applies: protein: recombinant; tags: GST; label: biotin; hairpin.

B1: unlabeled TAR RNA (HIV-1 vRNA 1-57) (structured_RNA)
RNA: GGUCUCUCUGGUUAGACCAGAUCUGAGCCUGGGAGCUCUCUGGCUAACUAGGGAACC
In the case of B1, in data set [1], the concentration for half-maximal inhibition (IC50) was approximately 5 nM.

B2: Bio-TAR RNA (HIV-1 vRNA 1-57) (structured_RNA)
RNA: GGUCUCUCUGGUUAGACCAGAUCUGAGCCUGGGAGCUCUCUGGCUAACUAGGGAACC
modifications: biotin-dT (terminal; end ambiguous in printed table)
B2: the binding result in data set [2] is on record as “binds”.
